Source: IntAct's records for PubMed 34400613

Experiments:
[1] = molecular target: G3BP1 (UniProt Q13283)
[2] = molecular target: G3BP1 (UniProt Q13283); remark: listed apart in the source

UniProt Q13283, sequence (Q13283 whole entry, looked up): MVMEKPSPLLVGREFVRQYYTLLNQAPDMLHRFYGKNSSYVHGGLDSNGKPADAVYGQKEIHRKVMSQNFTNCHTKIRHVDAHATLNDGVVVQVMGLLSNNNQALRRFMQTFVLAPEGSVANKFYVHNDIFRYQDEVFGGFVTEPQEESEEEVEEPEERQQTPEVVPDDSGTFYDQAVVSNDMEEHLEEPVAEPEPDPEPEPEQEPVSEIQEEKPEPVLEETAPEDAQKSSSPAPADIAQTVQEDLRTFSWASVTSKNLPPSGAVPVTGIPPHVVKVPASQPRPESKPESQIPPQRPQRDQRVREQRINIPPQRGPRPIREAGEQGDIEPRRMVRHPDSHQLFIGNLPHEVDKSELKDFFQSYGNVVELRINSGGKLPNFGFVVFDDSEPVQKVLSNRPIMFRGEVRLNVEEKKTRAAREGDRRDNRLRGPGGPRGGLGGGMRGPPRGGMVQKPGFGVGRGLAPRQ

Row | Substance | effect of a mutation on the interaction [1] | effect of a mutation on the interaction [2]
1 | Nucleoprotein (SARS-CoV-2) (from UniProt P0DTC9) G18A | decreasing interaction strength | 
2 | Nucleoprotein (SARS-CoV-2) (from UniProt P0DTC9) G18E |  | decreasing interaction strength
3 | Nucleoprotein (SARS-CoV-2) (from UniProt P0DTC9) I15A;T16A;F17A;G18A | disrupting interaction strength | 
4 | Nucleoprotein (SARS-CoV-2) (from UniProt P0DTC9) I15A |  | decreasing interaction strength
5 | Nucleoprotein (SARS-CoV-2) (from UniProt P0DTC9) T16A |  | decreasing interaction strength
